According to patent US12091776B2, “Protease activity profiling via programmable phage display of comprehensive proteome-scale peptide libraries” (THE JOHNS HOPKINS UNIVERSITY, priority 2019, dated 2024):

T1: Caspase-1 (Homo sapiens, UniProt P29466)
T1 construct: purchased BioVision
T1 sequence (P29466 120-297 limits assumed): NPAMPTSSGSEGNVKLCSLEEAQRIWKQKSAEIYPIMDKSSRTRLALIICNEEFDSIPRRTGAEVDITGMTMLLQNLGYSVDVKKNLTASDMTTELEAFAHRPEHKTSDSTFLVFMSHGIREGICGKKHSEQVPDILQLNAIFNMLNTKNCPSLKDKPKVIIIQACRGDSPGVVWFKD
T1 sequence (P29466 317-404 limits assumed): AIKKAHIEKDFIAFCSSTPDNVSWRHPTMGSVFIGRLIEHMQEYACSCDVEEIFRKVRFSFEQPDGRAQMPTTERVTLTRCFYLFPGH

B1: UHRF1BP1L 991-1080: 90-aa human peptidome tile displayed on T7 phage (protein, UniProt A0JNW5 991-1080, looked up, fragment)
chain: EIGSETSDKKDSFYTDSSSILNYREDSNILSFDSDGNQNILSSTLTSKGNETIESIFKAEDLLPEAASLSENLDISKEETPPVRTLKSQS
modifications: displayed on T7 phage
B2: ANAPC1 1-90: 90-aa human peptidome tile displayed on T7 phage (protein, UniProt Q9H1A4 1-90, looked up, fragment)
chain: MSNFYEERTTMIAARDLQEFVPFGRDHCKHHPNALNLQLRQLQPASELWSSDGAAGLVGSLQEVTIHEKQKESWQLRKGVSEIGEDVDYD
modifications: displayed on T7 phage
B3: BSN 631-720: 90-aa human peptidome tile displayed on T7 phage (protein, UniProt Q9UPA5 631-720, looked up, fragment)
chain: ATPKVKSGVRRAEPATPVVKAVPEAPKGGEAEDLVGKPYSQDASRSPQSLSDTGYSSDGISSSQSEITGVVQQEVEQLDSAGVTGPHPPS
modifications: displayed on T7 phage
B4: HUWE1 2251-2340: 90-aa human peptidome tile of HUWE1 displayed on T7 phage (protein, UniProt Q7Z6Z7 2251-2340, looked up, fragment)
chain: ETLSRIVNQPSSLFGSKSASSKNKSEQDAQGASQDSSSNQQDPGEPGEAEVQEEDHDVTQTEVADGDIMDGEAETDSVVIAGQPEVLSSQ
modifications: displayed on T7 phage
B5: MAP3K14 496-585: 90-aa human peptidome tile displayed on T7 phage (protein, UniProt Q99558 496-585, looked up, fragment)
chain: LGQALEGLEYLHSRRILHGDVKADNVLLSSDGSHAALCDFGHAVCLQPDGLGKSLLTGDYIPGTETHMAPEVVLGRSCDAKVDVWSSCCM
modifications: displayed on T7 phage
B6: HUWE1 2296-2485: 90-aa human peptidome tile of HUWE1 displayed on T7 phage; position as printed (protein, UniProt Q7Z6Z7 2296-2485, looked up, fragment)
chain: PGEAEVQEEDHDVTQTEVADGDIMDGEAETDSVVIAGQPEVLSSQEMQVENELEDLIDELLERDGGSGNSTIIVSRSGEDESQEDVLMDEAPSNLSQASTLQANREDSMNILDPEDEEEHTQEEDSSGSNEDEDDSQDEEEEEEEDEEDDQEDDEGEEGDEDDDDDGSEMELDEDYPDMNASPLVRFERF
modifications: T7 phage display
notes: position as printed
B7: TNS3 451-540: 90-aa human peptidome tile displayed on T7 phage (protein, UniProt Q68CZ2 451-540, looked up, fragment)
chain: YSGTRHVVPAQVHVNGDAALKDRETDILDDEMPHHDLHSVDSLGTLSSSEGPQSAHLGPFTCHKSSQNSLLSDGFGSNVGEDPQGTLVPD
modifications: displayed on T7 phage
B8: Hyls1 1-90: 90-aa human peptidome tile displayed on T7 phage (protein, UniProt Q96M11 1-90, looked up, fragment)
chain: MEELLPDGQIWANMDPEERMLAAATAFTHICAGQGEGDVRREAQSIQYDPYSKASVAPGKRPALPVQLQYPHVESNVPSETVSEASQRLR
modifications: displayed on T7 phage
B9: ZNF469 811-900: 90-aa human peptidome tile displayed on T7 phage (protein, UniProt Q96JG9 811-900, looked up, fragment)
chain: PLRTGFLPSLAATPFPLPASDLDMEDDAKLDSLITEALNGMEYQSDNPEIDSSFIDVFADEEPSGPRGPSSGHPLKSKAGVTPESKAPPP
modifications: displayed on T7 phage
B10: LYST 1171-1260: 90-aa human peptidome tile displayed on T7 phage (protein, UniProt Q99698 1171-1260, looked up, fragment)
chain: NYSADFEHNDAMTEKSHQSAEELSSQPGDFSEEAEDSQCCSFKLLVEEEGYEADSESNPEDGETQDDGVDLKSETEGFSASSSPNDLLEN
modifications: displayed on T7 phage
B11: Znf462 1-90: 90-aa human peptidome tile displayed on T7 phage (protein, UniProt Q96JM2 1-90, looked up, fragment)
chain: MEVLQCDGCDFRAPSYEDLKAHIQDVHTAFLQPTDVAEDNVNELRCGSVNASNQTEVEFSSIKDEFAIAEDLSGQNATSLGTGGYYGHSP
modifications: displayed on T7 phage
B12: hoxa2 271-360: 90-aa human peptidome tile displayed on T7 phage (protein, UniProt O43364 271-360, looked up, fragment)
chain: SFPVSPLTSNEKNLKHFQHQSPTVPNCLSTMGQNCGAGLNNDSPEALEVPSLQDFSVFSTDSCLQLSDAVSPSLPGSLDSPVDISADSLD
modifications: displayed on T7 phage
B13: HUWE1 2341-2430: 90-aa human peptidome tile of HUWE1 displayed on T7 phage (protein, UniProt Q7Z6Z7 2341-2430, looked up, fragment)
chain: EMQVENELEDLIDELLERDGGSGNSTIIVSRSGEDESQEDVLMDEAPSNLSQASTLQANREDSMNILDPEDEEEHTQEEDSSGSNEDEDD
modifications: displayed on T7 phage
B14: Efs 181-270: 90-aa human peptidome tile displayed on T7 phage (protein, UniProt O43281 181-270, looked up, fragment)
chain: PGEDDAPYDVPLTPKPPAELEPDLEWEGGREPGPPIYAAPSNLKRASALLNLYEAPEELLADGEGGGTDEGIYDVPLLGPEAPPSPEPPG
modifications: displayed on T7 phage
B15: HMGXB4 226-315: 90-aa human peptidome tile displayed on T7 phage (protein, UniProt Q9UGU5 226-315, looked up, fragment)
chain: KSARDEQGALLLGHELQSFLKTARKKHKSSSDAHSSPGPEGCGSDASQFAESHSANLDLSGLEPILVESDSSSGGELEAGELVIDDSYRE
modifications: displayed on T7 phage

target: T1, Caspase-1; assay: SEPARATE assay: human peptidome library digest with Caspase-1; type: biochemical; settings: top 20 enriched peptides, human library (90-aa tiles); normalized read counts digest vs mock digest
Description: Streptavidin-coupled magnetic beads (Dynabeads M-280 Streptavidin, ThermoFisher Scientific) were washed (TBS, pH 7.4, 0.01% NP40) and resuspended in binding buffer (TBS, pH 7.4, 0.001% NP40) containing 2E9 plaque forming units per 10 μl of bead slurry. End-over-end mixing at room temperature was performed for one hour. Phage-coated beads were washed three times with wash buffer and transferred into two protein LoBind Eppendorf tubes blocked with TBS, pH 7.4 containing 1% BSA.
Digestion occurred overnight at room temperature with end-over-end rotation. […] To remove any residual biotinylated phage that may have been nonspecifically released, the 150 μl supernatant of the quenched digest reaction is then incubated with a fresh 10 μl of slurry volume M280 streptavidin beads (pre-washed three times with wash buffer) in a LoBind Eppendorf tube blocked with TBS, pH 7.4 containing 1% BSA at room temperature for one hour with end-over-end rotation.
10 μl slurry volume of protein G magnetic dynabeads were washed in buffer (TBS, pH 7.4, 0.01% NP40) and then resuspended in 50 μl TBS, pH 7.4, 0.01% NP40 containing 4 μg of M2 FLAG antibody for thirty minutes at room temperature with end-over-end rotation. The 150 μl quenched digest reaction is added to the 10 μl FLAG-coated Protein G beads and incubated for 60 minutes at room temperature with end-over-end rotation to capture phage particles released at the protease digest step. Beads are rinsed once with 100 μl wash buffer and stored at −80° C. until PCR amplification.
Library PCR preparation, high-throughput DNA sequencing, and peptide read count data generation was performed as described previously.^44 Briefly, library peptide inserts are amplified by resuspending 10 μl of FLAG-coated Protein G beads in PCR1 master mix containing the T7-Pep2_PCR1_F forward primer ([…]) (SEQ ID NO:3) and a T7-SEPARATE vector specific reverse primer ([…]) (SEQ ID NO:4), which includes an adapter sequence for sample-specific barcoding and Illumina P7 adapter incorporation during a subsequent PCR2 reaction. The PCR2 amplicons are pooled and sequenced using an Illumina NextSeq instrument in standard output mode to obtain single-end 50 nucleotide reads. Dual indexed sample demultiplexing and clonal read count determination were performed using exact sequence matching. […] To calculate the normalization factor, 100 peptides were randomly selected from the mock digest conditions with a read count ranging between 10 and 40. The median read count value for these 100 peptides is calculated for each sample. The random peptide selection and median calculation is performed 20 times and the average of the 20 median values is calculated for each sample. Finally, the normalization factor is calculated by dividing the average median value for each sample by that for one of the mock digest conditions. Read counts are then converted to normalized read counts by dividing each sample's read count values by the normalization factor. Fold enrichments are calculated for each peptide by dividing their normalized read counts in the digest condition by the normalized read counts in the mock digest condition. The fold enrichments can be visualized in an MA plot by transforming the normalized read count data into a log ratio (M, on the y-axis) and a mean average (A, on the x-axis) between the digest and mock digest conditions.

Compared with B1, B2 is lower in Caspase1 fold change: 16.39 fold for the first, 16.35 fold for the second.

Going from B3 to B4, the Caspase1 fold change falls from 18.78 fold to 17.58 fold.

First: B5
Second: B6
The Caspase1 fold change of the first is lower: 16.5 fold for the first, 22.71 fold for the second.

Compared with B7, B8 is higher in Caspase1 fold change: 18.67 fold for the first, 19.74 fold for the second.

Going from B9 to B10, the Caspase1 fold change rises from 16.76 fold to 21.04 fold.

Compared with B11, B12 is lower in Caspase1 fold change: 19.1 fold for the first, 17.06 fold for the second.

Compared with B13, B14 is higher in Caspase1 fold change: 16.55 fold for the first, 21.06 fold for the second.

B15 was tested, and the Caspase1 fold change was 16.49 fold.
